This is an account of results in paper PMC4465127.

The target of the assay is LIN-3^EGF (the purified EGF domain from LIN-3) (C. elegans). Put plainly: SPR; Biacore 3000; LIN-3 amine-coupled on CM5 chip, sLET-23 injected; steady state, single-site model; 10 mM Hepes pH 8.0, 150 mM NaCl, 3 mM EDTA, 0.005% P-20, room temperature. On the technique in general: Surface plasmon resonance follows binding to a sensor surface in real time, without labels.

B1: LET-23 extracellular region (sLET-23) (domain or fragment)
chain: FGNSNAQLWKRCVSPQDCLCSGTTNGISRYGTGNILEDLETMYRGCRRVYGNLEITWIEANEIKKWRESTNSTVDPKNEDSPLKSINFFDNLEEIRGSLIIYRANIQKISFPRLRVIYGDEVFHDNALYIHKNDKVHEVVMRELRVIRNGSVTIQDNPKMCYIGDKIDWKELLYDPDVQKVETTNSHQHCYQNGKSMAKCHESCNDKCWGSGDNDCQRVYRSVCPKSCSQCFYSNSTSSYECCDSACLGGCTGHGPKNCIACSKYELDGICIETCPSRKIFNHKTGRLVFNPDGRYQNGNHCVKECPPELLIENDVCVRHCSDGHHYDATKDVRECEKCRSSSCPKICTVDGHLTNETLKNLEGCEQIDGHLIIEHAFTYEQLKVLETVKIVSEYITIVQQNFYDLKFLKNLQIIEGRKLHNVRWALAIYQCDDLEELSLNSLKLIKTGAVLIMKNHRLCYVSKIDWSSIITSKGKDNKPSLAIAENRDSKLCETEQRVCDKNCNKRGCWGKEPEDCLECKTWKSVGTCVEKCDTKGFLRNQTSMKCERCSPECETCNGLGELDCLTCRHKTLYNSDFGNRMECVHDCPVSHFPTQKNVCEKCHPTCYDNGCTGPDSNLGYGGCKQCKYAVKYENDTIFCLQSSGMNNVCVENDLPNYYISTYDTEGVIETHCEKCSISCKTCSSAGRNVVQNKCVCKHVEYQPNPSERICMDQCPVNSFMVPDTNNTVCKKCHHECDQNYHCANGQSTGCQKCKNFTVFKGDIAQCVSECPKNLPFSNPANGECLDYDIASRQRKTRM
Take B1: the Kd (usually the free concentration of one partner at which half of the binding sites on the other are occupied at equilibrium, for simple one-to-one binding) was 2 to 4 µM.
